Publication PMC8490154, “Mass-sensitive particle tracking to elucidate the membrane-associated MinDE reaction cycle” (Nature Methods, 2021)
Where “and” joins values, the source holds several entries; their conditions need not be identical. Identical values can stand only once. Like-named read-outs stand apart in the source and are kept apart here.

Columns and labels:
MinD (Escherichia coli) [1] = target: MinD (Escherichia coli) (UniProt P0AEZ3); assay: mass-sensitive particle tracking (MSPT, iSCAT) on a supported lipid bilayer; MinD or MinD D40A alone, 50-200 nM, 0.5 mM ATP, Min buffer, SLB of 70 mol% DOPC / 30 mol% DOPG, room temperature (23 ± 2 °C); particle densities 0.03-0.8 µm^-2; monomers (33 kDa) not quantitatively detectable
MinD (Escherichia coli) [2] = target: MinD (Escherichia coli) (UniProt P0AEZ3); assay: as above; remark: listed apart in the source
[3] = target: the molecule itself; assay: as above
[4] = target: the molecule itself; assay: mass-sensitive particle tracking (MSPT, iSCAT) on a supported lipid bilayer; co-reconstitution of equimolar MinD and MinE, 50-200 nM each, 0.5 mM ATP, Min buffer, SLB of 70 mol% DOPC / 30 mol% DOPG, room temperature; particle densities 0.1-0.8 µm^-2

## MinD (from UniProt P0AEZ3 1-270) (natural protein)
MinD (Escherichia coli) [1]
  stoichiometry N: 2
MinD (Escherichia coli) [2]
  stoichiometry N: 3 and 4

B1: MinD D40A (natural protein, Escherichia coli, UniProt P0AEZ3 1-270, looked up)
chain: MARIIVVTSGKGGVGKTTSSAAIATGLAQKGKKTVVIDFAIGLRNLDLIMGCERRVVYDFVNVIQGDATLNQALIKDKRTENLYILPASQTRDKDALTREGVAKVLDDLKAMDFEFIVCDSPAGIETGALMALYFADEAIITTNPEVSSVRDSDRILGILASKSRRAENGEEPIKEHLLLTRYNPGRVSRGDMLSMEDVLEILRIKLVGVIPEDQSVLRASNQGEPVILDINADAGKAYADTVERLLGEERPFRFIEEEKKGFLKRLFGG
notes: ATPase MinD of the Escherichia coli Min system with D40A (impaired ATP hydrolysis); A purification tag is probably present (surmise); also called D40A mutant; MinD mutant (D40A)
[3]
  stoichiometry N: 2 and 4

B2: MinE (natural protein, Escherichia coli, UniProt P0A734 1-88, looked up)
chain: MALLDFFLSRKKNTANIAKERLQIIVAERRRSDAEPHYLPQLRKDILEVICKYVQIDPEMVTVQLEQKDGDISILELNVTLPEAEELK
notes: MinE of the Escherichia coli Min system; A purification tag is probably present (surmise)
[4]
  binding result: binds
